Positions count from the first letter of the chain named.
B1: hBDI-9E8.5 (antibody, V domains shown)
VH: EVTLRESGPALVKPTQTLTLTCTFSGFSLSTYGMGVGWIRQPPGKGLEWLANIWWDDDKYYNPSLKNRLTISKDTSKNQAVLTITNMDPVDTATYYCARIESIGTTYSFDYWGQGTMVTVSS
VL: NFMLTQPHSVSESPGKTVTISCERSSGDIGDSYVSWYQQRPGSSPTTVIYADDQRPSGVPDRFSGSIDSSSNSASLTISGLKTEDEADYYCQSYDINIDIVFGGGTKLTVL
B2: hBDI-9E8.6 (antibody, V domains shown)
VH: B1 VH
VL: B1 VL with S44P, T47N, Y90F
B3: hBDI-9E8.3 (antibody, V domains shown)
VH: B1 VH with G46A, A80V, I84M
VL: EIVLTQSPGTLSLSPGERATLSCERSSGDIGDSYVSWYQQKPGQAPRLLIYADDQRPSGIPDRFSGSGSGTDFTLTISRLEPEDFAVYYCQSYDINIDIVFGGGTKVEIK
B4: hBDI-9E8.7 (antibody, V domains shown)
VH: B1 VH
VL: B3 VL
B5: hBDI-9E8.8 (antibody, V domains shown)
VH: B1 VH
VL: B3 VL with I2F, L49V
B6: hBDI-9E8.4 half body (other)
VH: B1 VH with G46A, A80V, I84M
VL: B3 VL with I2F, L49V
B7: hBDI-9E8.9 (antibody, V domains shown)
VH: B1 VH with G46A, M117T
VL: DFVLTQSPDSLAVSLGERATINCERSSGDIGDSYVSWYQQKPGQPPKNVIYADDQRPSGVPDRFSGSGSGNSASLTISSLQAEDVAVYFCQSYDINIDIVFGGGTKVEIK
B8: hBDI-9E8.10 (antibody, V domains shown)
VH: B1 VH with G46A, M117T
VL: DFQLTQSPSSLSASVGDRVTITCERSSGDIGDSYVSWYQQKPGKAPKNVIYADDQRPSGVPSRFSGSGSGNSASLTISSLQPEDFATYYCQSYDINIDIVFGQGTKVEIK
B9: hBDI-9E8.12 (antibody, V domains shown)
VH: EVQLVESGGGLVQPGGSLRLSCAFSGFSLSTYGMGVGWIRQAPGKGLEWLANIWWDDDKYYNPSLKNRLTISKDTSKNQAYLQINSLRAEDTAVYYCARIESIGTTYSFDYWGQGTLVTVSS
VL: B8 VL
B10: hBDI-5H1.1 (antibody, V domains shown)
VH: EVTLRESGPALVKPTQTLTLTCTFSGFSLSTFGMGVGWIRQPPGKALEWLANIWWDDDKYYNPSLKNRLTISKDTSKNQVVLTMTNMDPVDTATYYCARISTGISSYYVMDAWGQGTTVTVSS
VL: B1 VL with S32T, A51G, D52N, I96S, N97D
B11: hBDI-5H1.2 (antibody, V domains shown)
VH: B10 VH
VL: B1 VL with S32T, S44P, T47N, A51G, D52N, Y90F, I96S, N97D
B12: hBDI-5H1.5 (antibody, V domains shown)
VH: B10 VH with R5K, V80A, M84I
VL: B1 VL with S32T, A51G, D52N, I96S, N97D
B13: hBDI-5H1.6 (antibody, V domains shown)
VH: B10 VH with R5K, V80A, M84I
VL: B1 VL with S32T, S44P, T47N, A51G, D52N, Y90F, I96S, N97D
B14: hBDI-5H1.3 (antibody, V domains shown)
VH: B10 VH
VL: B3 VL with S33T, A52G, D53N, I95S, N96D
B15: hBDI-5H1.4 (antibody, V domains shown)
VH: B10 VH
VL: B3 VL with I2F, S33T, L49V, A52G, D53N, I95S, N96D
B16: hBDI-5H1.9 (antibody, V domains shown)
VH: B10 VH with V80A, M84I
VL: B7 VL with S33T, A52G, D53N, S74T, I95S, N96D
B17: hBDI-5H1.10 (antibody, V domains shown)
VH: B10 VH with V80A, M84I
VL: B8 VL with S33T, A52G, D53N, S74T, Y89F, I95S, N96D
B18: hBDI-5H1.11 (antibody, V domains shown)
VH: EVQLVESGGGLVQPGGSLRLSCAFSGFSLSTFGMGVGWIRQAPGKGLEWLANIWWDDDKYYNPSLKNRLTISKDTSKNQAYLQINSLRAEDTAVYYCARISTGISSYYVMDAWGQGTLVTVSS
VL: B7 VL with S33T, A52G, D53N, S74T, I95S, N96D
B19: hBDI-5H1.12 (antibody, V domains shown)
VH: B18 VH
VL: B8 VL with S33T, A52G, D53N, S74T, Y89F, I95S, N96D
B20: hBDI-5H1.7 (antibody, V domains shown)
VH: B10 VH with R5K, V80A, M84I
VL: B3 VL with S33T, A52G, D53N, I95S, N96D
B21: hBDI-5H1.8 (antibody, V domains shown)
VH: B10 VH with R5K, V80A, M84I
VL: B3 VL with I2F, S33T, L49V, A52G, D53N, I95S, N96D
B22: hBDI-5H1.13 (antibody, V domains shown)
VH: B10 VH with R5K, V80A, M84I
VL: B8 VL with S33T, A52G, D53N, S74T, Y89F, I95S, N96D

target: recombinant human PDGF-BB (human, UniProt P01127 82-190); experiment: cell-based or functional assay
Sequence (P01127 82-190 limits assumed): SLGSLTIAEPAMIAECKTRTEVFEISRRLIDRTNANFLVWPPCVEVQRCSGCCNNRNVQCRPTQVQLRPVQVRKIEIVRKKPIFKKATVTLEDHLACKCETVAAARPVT

B1 and B2 cannot be ordered by “hPDGF-BB IC50 (nM), hPDGF-BB-induced NIH-3T3 cell proliferation” value (“hPDGF-BB IC50 (nM)” for short): > 5 nM for the first, > 5 nM for the second.

Going from B3 to B4, the “hPDGF-BB IC50 (nM)” value falls from 1.58 nM to 0.35 nM (4.5-fold).

First: B5
Second: B6
The “hPDGF-BB IC50 (nM)” value of the first is lower: 0.105 nM for the first, > 5 nM for the second.

B7 and B8 are within 1.5-fold of each other in “hPDGF-BB IC50 (nM)” value: 0.574 nM for the first, 0.562 nM for the second.

B9 and B10 cannot be ordered by “hPDGF-BB IC50 (nM)” value: 0.525 nM for the first, < 10 nM for the second.

B11 and B12 cannot be ordered by “hPDGF-BB IC50 (nM)” value: < 10 nM for the first, < 10 nM for the second.

B13 and B14 cannot be ordered by “hPDGF-BB IC50 (nM)” value: < 10 nM for the first, < 10 nM for the second.

B15 and B16 cannot be ordered by “hPDGF-BB IC50 (nM)” value: < 10 nM for the first, < 10 nM for the second.

B17 and B18 cannot be ordered by “hPDGF-BB IC50 (nM)” value: < 10 nM for the first, < 10 nM for the second.

B19 and B20 cannot be ordered by “hPDGF-BB IC50 (nM)” value: < 10 nM for the first, < 10 nM for the second.

B21 and B22 cannot be ordered by “hPDGF-BB IC50 (nM)” value: < 10 nM for the first, < 10 nM for the second.
